Measured values taken from patent publication US20030232051A1 (GOVERNMENT OF THE UNITED STATES OF AMERICA AS REPRESENTED …, published 2003).

Biological target: T1, KIR2DL4 receptor (on NK cells or on cells transfected with 2DL4) (human, UniProt Q99706 22-377)
T1 construct: whole, on cells; Endogenous on human NK cells and NK cell lines (NK3.3, NKL, NK92) or on transfected cells; also called CD158d
Test: transfection experiments in Ba/F3 and 293T cells

T1 sequence (Q99706 22-377): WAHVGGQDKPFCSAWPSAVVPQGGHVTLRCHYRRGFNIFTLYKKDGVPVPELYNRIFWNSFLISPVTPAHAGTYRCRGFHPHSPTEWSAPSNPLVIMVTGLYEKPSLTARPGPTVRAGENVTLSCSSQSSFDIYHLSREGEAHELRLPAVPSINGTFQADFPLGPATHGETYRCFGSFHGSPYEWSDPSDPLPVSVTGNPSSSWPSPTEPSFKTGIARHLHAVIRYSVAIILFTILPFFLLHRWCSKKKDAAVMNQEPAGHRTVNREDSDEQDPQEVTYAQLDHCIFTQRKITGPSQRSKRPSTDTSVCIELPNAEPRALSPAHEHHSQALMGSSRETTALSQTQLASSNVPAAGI

Row | binding result | Binder
1 | no binding | DAP10 (other, UniProt Q9UBK5 19-93, looked up, whole, on cells) QTTPGERSSLPAFYPGTSGSCSGCGSLSLPLLAGLVAADAVASLLIVGAVFLCARPRRSPAQEDGKVYINMPGRG
2 | no binding | FcRγ chain (other, UniProt P30273 19-86, looked up, whole, on cells) LGEPQLCYILDAILFLYGIVLTLLYCRLKIQVRKAAITSYEKSDGVYTGLSTRNQETYETLKHEKPPQ
3 | no binding | DAP12 (other, UniProt O43914 22-113, looked up, whole, on cells; also called DAP12 adaptor protein) LRPVQAQAQSDCSCSTVSPGVLAGIVMGDLVLTVLIALAVYFLGRLVPRGRGAAEAATRKQRITETESPYQELQGQRSDVYSDLNTQRPYYK
